# How the values were obtained:
# [1] = biological target: T1, recombinant mouse Sortilin (mouse, UniProt Q6PHU5 74-825); experiment: flow cytometry, 10 ug/ml antibody on 293 cells expressing recombinant mouse Sortilin, PE anti-human secondary
# T1 construct: also called mSort
# Procedure: (§1) Cells were harvested, plated at 10⁵/ml in a 96 well plate, washed, and incubated in 100 μl PBS containing 10 μg/ml Mab and 2% FBS for 1 hour in ice. Cells were then washed twice and incubated in 100 μl PBS+2% FBS containing 5 μg/ml PE-conjugated anti-human secondary antibody for 30 minutes in ice. Cells were washed twice in cold PBS and data was acquired on a BD FACS Canto. Data analysis and calculation of MFI values was performed with FlowJo (TreeStar) software version 10.0.7.
# [2] = biological target: T2, recombinant human Sortilin (human, UniProt Q99523 78-830); experiment: flow cytometry, 10 ug/ml antibody on 293 cells expressing recombinant human Sortilin, PE anti-human secondary
# T2 construct: also called hSort; SORT1
# Procedure: as §1
MFI binding [1] [MFI],MFI binding [2] [MFI],Binder
7930,7120,"anti-Sortilin antibody S-78 (antibody, V domains shown, Tested as full IgG made in yeast) VH: QLQLQESGPGLVKPSETLSLTCTVSGGSISSSDYYWGWIRQPPGKGLEWIGSIYYSGSTYYNPSLKSRVTISVDTSKNQFSLKLSSVTAADTAVYYCARSLAMSGAYFDLWGRGTLVTVSS VL: not shown"
1890,8580,"anti-Sortilin antibody S-69 (antibody, V domains shown, Tested as full IgG made in yeast) VH: QVQLQESGPGLVKPSQTLSLTCTVSGGSISSGGYYWSWIRQHPGKGLEWIGYIYYSGSTYYNPSLKSRVTISVDTSKNQFSLKLSSVTAADTAVYYCARDRGGTHFGADHYYYGMDVWGQGTMVTVSS VL: EIVMTQSPATLSVSPGERATLSCRASQSVSSSLAWYQQKPGQAPRLLIYGASTRATGIPARFSGSGSGTEFTLTISSLQSEDFAVYYCQQAADWPITFGGGTKVEIK"
,9300,"anti-Sortilin antibody S-83 (antibody, V domains shown, Tested as full IgG made in yeast) VH: QLQLQESGPGLVKPSETLSLTCTVSGGSISSSSYYWGWIRQPPGKGLEWIGSIYYSGSTYYNPSLKSRVTISVDTSKNQFSLKLSSVTAADTAVYYCARGSPTWLRDYYMDVWGKGTTVTVSS VL: EIVLTQSPATLSVSPGERATLSCRASQSVSSNLAWYQQKPGQAPRLLIYGASTRATGIPARFSGSGSGTEFTLTISSLQSEDFAVYYCQQYNAFPPTFGGGTKVEIK"
4180,9680,"anti-Sortilin antibody S-76 (antibody, V domains shown, Tested as full IgG made in yeast) VH: QVQLQESGPGLVKPSQTLSLTCTVSGGSISSGGYYWSWIRQHPGKGLEWIGSIYYSGSTYYNPSLKSRVTISVDTSKNQFSLKLSSVTAADTAVYYCARGVGIQQQLVLGFDPWGQGTLVTVSS VL: DIQMTQSPSSLSASVGDRVTITCRASQSISSFLNWYQQKPGKAPKLLISAASSLQSGVPSRFSGSGSGTDFTLTISSLQPEDFATYYCQQSYREPITFGGGTKVEIK"
7670,8070,"anti-Sortilin antibody S-73 (antibody, V domains shown, Tested as full IgG made in yeast) VH: QVQLQESGPGLVKPSQTLSLTCTVSGGSISSGTYYWSWIRQHPGKGLEWIGYIYYSGSTYYNPSLKSRVTISVDTSKNQFSLKLSSVTAADTAVYYCARGVGRYRVADYWGQGTLVTVSS VL: EIVLTQSPATLSLSPGERATLSCRASQSVSSYLAWYQQKPGQAPRLLIYDASNRATGIPARFSGSGSGTDFTLTISSLEPEDFAVYYCQQASVYPPITFGGGTKVEIK"
7300,9210,"anti-Sortilin antibody S-74 (antibody, V domains shown, Tested as full IgG made in yeast) VH: QVQLQESGPGLVKPSQTLSLTCTVSGGSISSGTYYWSWIRQHPGKGLEWIGYIYYSGSTYYNPSLKSRVTISVDTSKNQFSLKLSSVTAADTAVYYCARGVGRYRVADYWGQGTLVTVSS VL: EIVMTQSPATLSLSPGERATLSCRASQSVSSYLAWYQQKPGQAPRLLIYDSSNRATGIPARFSGSGSGTDFTLTISSLEPEDFAVYYCQQETNMPPITFGGGTKVEIK"
16600,8940,"anti-Sortilin antibody S-81 (antibody, V domains shown, Tested as full IgG made in yeast) VH: QLQLQESGPGLVKPSETLSLTCTVSGGSISSSSYYWGWIRQPPGKGLEWIGSIYYSGSTYYNPSLKSRVTISVDTSKNQFSLKLSSVTAADTAVYYCARERWDLGHGMDVWGQGTTVTVSS VL: not shown"
15400,9240,"anti-Sortilin antibody S-84 (antibody, V domains shown, Tested as full IgG made in yeast) VH: QLQLQESGPGLVKPSETLSLTCTVSGGSISSSSYYWGWIRQPPGKGLEWIGSISYSGSTYYNPSLKSRVTISVDTSKNQFSLKLSSVTAADTAVYYCARGGTTWLVADVWGQGTMVTVSS VL: not shown"

# Reference: patent publication US20220251219A1 (published 2022)
